# In patent WO2013167756A1:
# Biological target: CD22 on CD22-positive Raji cells and CD22 positive Ramos cells (human) (UniProt P20273)
# Experiment: flow cytometry on CD22-positive Raji cells, PE anti-human IgG Fc secondary, four-parameter fit
substance,measurement,value
"AGC1100, anti-CD22 monoclonal antibody hLL2, also called epratuzumab",EC50,9 nM
